Numbered stars: 1 amine (or outer) side, 2 acyl side, 3 side chain; on linkers, the order of the positions; unused ones are H or OH. Bridge positions count the residues as written; N and C are the ends. Side chains are listed from the residue outwards. Ends that are not written are not given here. * marks the point of attachment. C20 diacid = O=C(O)CCCCCCCCCCCCCCCCCCC(=O)*; γGlu = O=C(O)[C@H](CCC(=O)[*:2])N[*:1]; AEEA = NCCOCCOCC(=O)O
B1: N^α1-[(4S)-4-carboxy-4-(19-carboxynonadecanoylamino)butanoyl]-[Glu14,Arg17,Pro21,Pro27,Arg35]-h-amylin (peptide)
peptide: {C20 diacid-γGlu}-KCNTATCATQRLAEFLRHSSPNFGAIPSSTNVGSRTY-NH2
modifications: disulfide 2-7
SMILES: CC[C@H](C)[C@H](NC(=O)[C@H](C)NC(=O)CNC(=O)[C@H](Cc1ccccc1)NC(=O)[C@H](CC(N)=O)NC(=O)[C@@H]1CCCN1C(=O)[C@H](CO)NC(=O)[C@H](CO)NC(=O)[C@H](Cc1c[nH]cn1)NC(=O)[C@H](CCCNC(=N)N)NC(=O)[C@H](CC(C)C)NC(=O)[C@H](Cc1ccccc1)NC(=O)[C@H](CCC(=O)O)NC(=O)[C@H](C)NC(=O)[C@H](CC(C)C)NC(=O)[C@H](CCCNC(=N)N)NC(=O)[C@H](CCC(N)=O)NC(=O)[C@@H](NC(=O)[C@H](C)NC(=O)[C@@H]1CSSC[C@H](NC(=O)[C@H](CCCCN)NC(=O)CC[C@H](NC(=O)CCCCCCCCCCCCCCCCCCC(=O)O)C(=O)O)C(=O)N[C@@H](CC(N)=O)C(=O)N[C@@H]([C@@H](C)O)C(=O)N[C@@H](C)C(=O)N[C@@H]([C@@H](C)O)C(=O)N1)[C@@H](C)O)C(=O)N1CCC[C@H]1C(=O)N[C@@H](CO)C(=O)N[C@@H](CO)C(=O)N[C@H](C(=O)N[C@@H](CC(N)=O)C(=O)N[C@H](C(=O)NCC(=O)N[C@@H](CO)C(=O)N[C@@H](CCCNC(=N)N)C(=O)N[C@H](C(=O)N[C@@H](Cc1ccc(O)cc1)C(N)=O)[C@@H](C)O)C(C)C)[C@@H](C)O
notes: h-amylin derivative; disulfide bridge and C-terminal amide as told for human amylin; also called compound 16
B2: N^ε1-[2-[2-[2-[[2-[2-[2-[[(4S)-4-carboxy-4-(19-carboxynonadecanoylamino)butanoyl]amino]ethoxy]ethoxy]acetyl]amino]ethoxy]ethoxy]acetyl]-[Arg17,Pro21,Pro27,Glu35 … (peptide)
peptide: K([AEEA-AEEA-γGlu-C20 diacid])CNTATCATQRLANFLRHSSPNFGAIPSSTNVGSETY-NH2
modifications: disulfide 2-7; N-terminus assumed
SMILES: CC[C@H](C)[C@H](NC(=O)[C@H](C)NC(=O)CNC(=O)[C@H](Cc1ccccc1)NC(=O)[C@H](CC(N)=O)NC(=O)[C@@H]1CCCN1C(=O)[C@H](CO)NC(=O)[C@H](CO)NC(=O)[C@H](Cc1c[nH]cn1)NC(=O)[C@H](CCCNC(=N)N)NC(=O)[C@H](CC(C)C)NC(=O)[C@H](Cc1ccccc1)NC(=O)[C@H](CC(N)=O)NC(=O)[C@H](C)NC(=O)[C@H](CC(C)C)NC(=O)[C@H](CCCNC(=N)N)NC(=O)[C@H](CCC(N)=O)NC(=O)[C@@H](NC(=O)[C@H](C)NC(=O)[C@@H]1CSSC[C@H](NC(=O)[C@@H](N)CCCCNC(=O)COCCOCCNC(=O)COCCOCCNC(=O)CC[C@H](NC(=O)CCCCCCCCCCCCCCCCCCC(=O)O)C(=O)O)C(=O)N[C@@H](CC(N)=O)C(=O)N[C@@H]([C@@H](C)O)C(=O)N[C@@H](C)C(=O)N[C@@H]([C@@H](C)O)C(=O)N1)[C@@H](C)O)C(=O)N1CCC[C@H]1C(=O)N[C@@H](CO)C(=O)N[C@@H](CO)C(=O)N[C@H](C(=O)N[C@@H](CC(N)=O)C(=O)N[C@H](C(=O)NCC(=O)N[C@@H](CO)C(=O)N[C@@H](CCC(=O)O)C(=O)N[C@H](C(=O)N[C@@H](Cc1ccc(O)cc1)C(N)=O)[C@@H](C)O)C(C)C)[C@@H](C)O
notes: h-amylin derivative; disulfide bridge and C-terminal amide as told for human amylin; also called compound 25
B3: N^α1-[(4S)-4-carboxy-4-(19-carboxynonadecanoylamino)butanoyl]-[Glu14,Arg17,Pro21,Pro27,Pro31]-h-amylin (peptide)
peptide: {C20 diacid-γGlu}-KCNTATCATQRLAEFLRHSSPNFGAIPSSTPVGSNTY-NH2
modifications: disulfide 2-7
SMILES: CC[C@H](C)[C@H](NC(=O)[C@H](C)NC(=O)CNC(=O)[C@H](Cc1ccccc1)NC(=O)[C@H](CC(N)=O)NC(=O)[C@@H]1CCCN1C(=O)[C@H](CO)NC(=O)[C@H](CO)NC(=O)[C@H](Cc1c[nH]cn1)NC(=O)[C@H](CCCNC(=N)N)NC(=O)[C@H](CC(C)C)NC(=O)[C@H](Cc1ccccc1)NC(=O)[C@H](CCC(=O)O)NC(=O)[C@H](C)NC(=O)[C@H](CC(C)C)NC(=O)[C@H](CCCNC(=N)N)NC(=O)[C@H](CCC(N)=O)NC(=O)[C@@H](NC(=O)[C@H](C)NC(=O)[C@@H]1CSSC[C@H](NC(=O)[C@H](CCCCN)NC(=O)CC[C@H](NC(=O)CCCCCCCCCCCCCCCCCCC(=O)O)C(=O)O)C(=O)N[C@@H](CC(N)=O)C(=O)N[C@@H]([C@@H](C)O)C(=O)N[C@@H](C)C(=O)N[C@@H]([C@@H](C)O)C(=O)N1)[C@@H](C)O)C(=O)N1CCC[C@H]1C(=O)N[C@@H](CO)C(=O)N[C@@H](CO)C(=O)N[C@H](C(=O)N1CCC[C@H]1C(=O)N[C@H](C(=O)NCC(=O)N[C@@H](CO)C(=O)N[C@@H](CC(N)=O)C(=O)N[C@H](C(=O)N[C@@H](Cc1ccc(O)cc1)C(N)=O)[C@@H](C)O)C(C)C)[C@@H](C)O
notes: h-amylin derivative; disulfide bridge and C-terminal amide as told for human amylin; also called compound 31
B4: N^α1-[(4S)-4-carboxy-4-(19-carboxynonadecanoylamino)butanoyl]-[Glu14,Arg17,Pro21,Pro27,His34]-h-amylin (peptide)
peptide: {C20 diacid-γGlu}-KCNTATCATQRLAEFLRHSSPNFGAIPSSTNVGHNTY-NH2
modifications: disulfide 2-7
SMILES: CC[C@H](C)[C@H](NC(=O)[C@H](C)NC(=O)CNC(=O)[C@H](Cc1ccccc1)NC(=O)[C@H](CC(N)=O)NC(=O)[C@@H]1CCCN1C(=O)[C@H](CO)NC(=O)[C@H](CO)NC(=O)[C@H](Cc1c[nH]cn1)NC(=O)[C@H](CCCNC(=N)N)NC(=O)[C@H](CC(C)C)NC(=O)[C@H](Cc1ccccc1)NC(=O)[C@H](CCC(=O)O)NC(=O)[C@H](C)NC(=O)[C@H](CC(C)C)NC(=O)[C@H](CCCNC(=N)N)NC(=O)[C@H](CCC(N)=O)NC(=O)[C@@H](NC(=O)[C@H](C)NC(=O)[C@@H]1CSSC[C@H](NC(=O)[C@H](CCCCN)NC(=O)CC[C@H](NC(=O)CCCCCCCCCCCCCCCCCCC(=O)O)C(=O)O)C(=O)N[C@@H](CC(N)=O)C(=O)N[C@@H]([C@@H](C)O)C(=O)N[C@@H](C)C(=O)N[C@@H]([C@@H](C)O)C(=O)N1)[C@@H](C)O)C(=O)N1CCC[C@H]1C(=O)N[C@@H](CO)C(=O)N[C@@H](CO)C(=O)N[C@H](C(=O)N[C@@H](CC(N)=O)C(=O)N[C@H](C(=O)NCC(=O)N[C@@H](Cc1c[nH]cn1)C(=O)N[C@@H](CC(N)=O)C(=O)N[C@H](C(=O)N[C@@H](Cc1ccc(O)cc1)C(N)=O)[C@@H](C)O)C(C)C)[C@@H](C)O
notes: h-amylin derivative; disulfide bridge and C-terminal amide as told for human amylin; also called compound 17
B5: N^α1-[(4S)-4-carboxy-4-(19-carboxynonadecanoylamino)butanoyl]-[His14,Arg17,Pro21,Pro27,Glu35]-h-amylin (peptide)
peptide: {C20 diacid-γGlu}-KCNTATCATQRLAHFLRHSSPNFGAIPSSTNVGSETY-NH2
modifications: disulfide 2-7
SMILES: CC[C@H](C)[C@H](NC(=O)[C@H](C)NC(=O)CNC(=O)[C@H](Cc1ccccc1)NC(=O)[C@H](CC(N)=O)NC(=O)[C@@H]1CCCN1C(=O)[C@H](CO)NC(=O)[C@H](CO)NC(=O)[C@H](Cc1c[nH]cn1)NC(=O)[C@H](CCCNC(=N)N)NC(=O)[C@H](CC(C)C)NC(=O)[C@H](Cc1ccccc1)NC(=O)[C@H](Cc1c[nH]cn1)NC(=O)[C@H](C)NC(=O)[C@H](CC(C)C)NC(=O)[C@H](CCCNC(=N)N)NC(=O)[C@H](CCC(N)=O)NC(=O)[C@@H](NC(=O)[C@H](C)NC(=O)[C@@H]1CSSC[C@H](NC(=O)[C@H](CCCCN)NC(=O)CC[C@H](NC(=O)CCCCCCCCCCCCCCCCCCC(=O)O)C(=O)O)C(=O)N[C@@H](CC(N)=O)C(=O)N[C@@H]([C@@H](C)O)C(=O)N[C@@H](C)C(=O)N[C@@H]([C@@H](C)O)C(=O)N1)[C@@H](C)O)C(=O)N1CCC[C@H]1C(=O)N[C@@H](CO)C(=O)N[C@@H](CO)C(=O)N[C@H](C(=O)N[C@@H](CC(N)=O)C(=O)N[C@H](C(=O)NCC(=O)N[C@@H](CO)C(=O)N[C@@H](CCC(=O)O)C(=O)N[C@H](C(=O)N[C@@H](Cc1ccc(O)cc1)C(N)=O)[C@@H](C)O)C(C)C)[C@@H](C)O
notes: h-amylin derivative; disulfide bridge and C-terminal amide as told for human amylin; also called compound 30
B6: N^α1-[(4S)-4-carboxy-4-(19-carboxynonadecanoylamino)butanoyl]-[Glu14,Arg17,Pro21,Pro27,Pro34]-h-amylin (peptide)
peptide: {C20 diacid-γGlu}-KCNTATCATQRLAEFLRHSSPNFGAIPSSTNVGPNTY-NH2
modifications: disulfide 2-7
SMILES: CC[C@H](C)[C@H](NC(=O)[C@H](C)NC(=O)CNC(=O)[C@H](Cc1ccccc1)NC(=O)[C@H](CC(N)=O)NC(=O)[C@@H]1CCCN1C(=O)[C@H](CO)NC(=O)[C@H](CO)NC(=O)[C@H](Cc1c[nH]cn1)NC(=O)[C@H](CCCNC(=N)N)NC(=O)[C@H](CC(C)C)NC(=O)[C@H](Cc1ccccc1)NC(=O)[C@H](CCC(=O)O)NC(=O)[C@H](C)NC(=O)[C@H](CC(C)C)NC(=O)[C@H](CCCNC(=N)N)NC(=O)[C@H](CCC(N)=O)NC(=O)[C@@H](NC(=O)[C@H](C)NC(=O)[C@@H]1CSSC[C@H](NC(=O)[C@H](CCCCN)NC(=O)CC[C@H](NC(=O)CCCCCCCCCCCCCCCCCCC(=O)O)C(=O)O)C(=O)N[C@@H](CC(N)=O)C(=O)N[C@@H]([C@@H](C)O)C(=O)N[C@@H](C)C(=O)N[C@@H]([C@@H](C)O)C(=O)N1)[C@@H](C)O)C(=O)N1CCC[C@H]1C(=O)N[C@@H](CO)C(=O)N[C@@H](CO)C(=O)N[C@H](C(=O)N[C@@H](CC(N)=O)C(=O)N[C@H](C(=O)NCC(=O)N1CCC[C@H]1C(=O)N[C@@H](CC(N)=O)C(=O)N[C@H](C(=O)N[C@@H](Cc1ccc(O)cc1)C(N)=O)[C@@H](C)O)C(C)C)[C@@H](C)O
notes: h-amylin derivative; disulfide bridge and C-terminal amide as told for human amylin; also called compound 32

Target: T1, human calcitonin receptor (human, UniProt P30988 25-474)
T1 sequence (looked up): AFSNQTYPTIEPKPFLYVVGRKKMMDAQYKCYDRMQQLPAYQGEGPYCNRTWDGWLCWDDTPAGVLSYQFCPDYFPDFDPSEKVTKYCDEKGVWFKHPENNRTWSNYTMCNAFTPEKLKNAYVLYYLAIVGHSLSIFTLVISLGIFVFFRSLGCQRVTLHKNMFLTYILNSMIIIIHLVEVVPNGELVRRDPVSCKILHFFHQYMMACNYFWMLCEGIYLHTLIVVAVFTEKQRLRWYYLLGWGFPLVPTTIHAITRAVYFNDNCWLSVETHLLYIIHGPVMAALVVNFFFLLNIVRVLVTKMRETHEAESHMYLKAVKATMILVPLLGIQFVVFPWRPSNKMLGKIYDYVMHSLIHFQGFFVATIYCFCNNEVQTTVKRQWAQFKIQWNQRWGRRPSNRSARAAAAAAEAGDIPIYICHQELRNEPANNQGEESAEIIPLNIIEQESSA
Assay: cell-based or functional assay

Row | Binder | hCTR funct. EC50
1 | B1 | 2.21 nM
2 | B2 | 10 nM
3 | B3 | 0.717 nM
4 | B4 | 2.35 nM
5 | B5 | 1.68 nM
6 | B6 | 0.327 nM

Reference: patent US20140087995A1 (published 2014)
